Experimental findings from article PMC5352143, “Lactoferrin binding protein B – a bi-functional bacterial receptor protein” (PLoS Pathogens, 2017) are described below.

For the test, the target named is T1, holo human lactoferrin (iron-loaded hLf) (human).
T1 construct: human lactoferrin, iron-loaded (holo) form; Iron-loaded form; also called holo-hLf; holo-Lf; source: bought: Agennix (named for XL-MS)
Put plainly: BLI; Octet RED 96; biotinylated MBP-LbpB constructs loaded from crude E. coli extracts on streptavidin sensors; holo-hLf 10-800 nM in 1 X PBS pH 7.4, 0.002% Tween-20, 0.1 mg/mL BSA; steady-state fit, apparent KD. The note with it: one partner purified. On the technique in general: BLI is a label-free optical method that tracks binding on a fibre tip over time.

B1: LbpB C-terminal lobe with N-terminal biotin acceptor peptide, fused to MBP (BLI construct) (domain or fragment)
chain: ENAADTKPALSSGKHTKILDSLKISVDEASDKNPREFAISSMPDFGHPDKLLVEGREIPLVNKEQTIELADGRKTTIRTCCDFLTYVKIGRMQTERPAAKPKAQDEERDEEDTGVDSVEEGEDEIDDEEGTEDAAVKDEGSEEDEAVEGEDEAEEPEEESPTEEGGSGSDGILPAPEAPKGRNIDLFLKGIRTAETDIPKTGEAHYTGTWEARIGKPIQWDNQADKEAAKAVFTVDFGKKSISGTLTEENGVEPAFHIENGKIEGNGFYATARTRENGINLSGNGSTDPKTFQASNLRVEGGFYGPQAEELGGIIFNNDGKSLGITEGTENKVDVEAEVDAEVDVGKQLESEVKHQFGVVFGAKKDMQEVEK
modifications: biotin on the biotin acceptor peptide
As to B1, the Kd amounted to 279 ± 15 nM.
